The nature of the data set: self-splicing fitness, log relative to wild type (ln ratio); higher = more splicing; Tetrahymena group I intron in knt gene, E. coli kanamycin selection, DiMSum; sequences stand for … in CUCUCU…GGAGGGAAAAGUUAUCAGGCAUGCACCUGGUAGCUAGUCUUUAAACCAAUAGAUUGCAUCGGUUUAAAAGGCAAGACCGUCAAAUUGCGGGAAAGGGGUCAACAGCCGUUCAGUACCAAGUCUCAGGGGAAACUUUGAGAUGGCCUUGCAAAGGGUAUGGUAAUAAGCUGACGGACAUGGUCCUAACCACGCAGCCAAGUCCUAAGUCAACAGAUCUUCUGUUGAUAUGGAUGCAGUUCACAGACUAAAUGUCGGUCGGGGAAGAUGUAUUCUUCUCAUAAGAUAUAGUCGGACCUCUCCUUAAUGGGAGCUAGCGGAUGAAGUGAUGCAACACUGGAGCCGCUGGGAACUAAUUUGUAUGCGAAAGUAUAUUGAUUAGUUUUGGAGUACUCGUGGUCG
In a few lines:
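Library with all eight P1ex-region intron nucleotides randomised, intron inside the knt kanamycin-resistance gene on pET-22b(+), in E. coli BL21(DE3). Cells grew overnight at 37°C or 30°C on LB agar with or without 25 μg/mL kanamycin (plus 100 μg/mL carbenicillin, 50 μM IPTG, 0.2% rhamnose), in six replicate transformations. Pooled colonies were amplicon-sequenced on Illumina HiSeq 2500. DiMSum fitness is the error-weighted combination of wild-type-normalised replicate fold changes, kanamycin versus none.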

± gives the uncertainty stated by the source.

On to UAGGAGCAAUAUUACGUGAC, for which the “self-splicing fitness (ln)” value (30 °C) is -3 ± 0.23.
For the sequence CUUAAGCAAUAUUACGUGCA, the “self-splicing fitness (ln)” value (30 °C) is -2.91 ± 0.19 and the “self-splicing fitness (ln)” value (37 °C) was -1.34 ± 0.18.
Consider GAUGAGCAAUAUUACGGGUG, for which the “self-splicing fitness (ln)” value by setting is: (30 °C) -2.68 ± 0.2; (37 °C) -3.32 ± 0.28.
With AUCUAGCAAUAUUACGUGAG, the “self-splicing fitness (ln)” value by setting is: (30 °C) -0.412 ± 0.095; (37 °C) -0.00344 ± 0.17.
The like results for ACUAAGCAAUAUUACGUCCC were, in that order, -1.43 ± 0.22 and -1.07 ± 0.32.
In the case of UGCCAGCAAUAUUACGGUAC, the “self-splicing fitness (ln)” value (37 °C) was -2.89 ± 0.47.
Turning to AUGAAGCAAUAUUACGAACA, the “self-splicing fitness (ln)” value is -0.423 ± 0.1 (30 °C) and 0.795 ± 0.15 (37 °C).
In the case of GUGCAGCAAUAUUACGGGUG, the “self-splicing fitness (ln)” value is -3.36 ± 0.12 (30 °C) and -1.87 ± 0.12 (37 °C).
For GGGAAGCAAUAUUACGCACA, the “self-splicing fitness (ln)” value by setting is: (30 °C) -2.53 ± 0.26; (37 °C) -0.142 ± 0.41.
The like results for GUUGAGCAAUAUUACGACGU were, in that order, -0.544 ± 0.11 and -0.345 ± 0.12.
For GUUUAGCAAUAUUACGAAUA, the “self-splicing fitness (ln)” value runs as follows: (30 °C) -1.58 ± 0.43; (37 °C) -0.203 ± 0.3.
In the same order, the values of GAGCAGCAAUAUUACGCGAA are -3.01 ± 0.25 and -1.27 ± 0.15.
Regarding GUUGAGCAAUAUUACGACAG, the “self-splicing fitness (ln)” value is -4.09 ± 0.36 (30 °C) and -2.49 ± 0.28 (37 °C).
The like results for UCCUAGCAAUAUUACGGCCA were, in that order, -3.17 ± 0.15 and -1.74 ± 0.11.
In the case of UAUCAGCAAUAUUACGGCAC, the “self-splicing fitness (ln)” value by setting is: (30 °C) -2.52 ± 0.17; (37 °C) -0.753 ± 0.14.
With UAAAAGCAAUAUUACGCUAC, the “self-splicing fitness (ln)” value (30 °C) is -3.07 ± 0.24.
As for UUGAAGCAAUAUUACGGGUA, the “self-splicing fitness (ln)” value (30 °C) was -0.282 ± 0.065 and the “self-splicing fitness (ln)” value (37 °C) was -0.527 ± 0.081.
The like results for ACGCAGCAAUAUUACGUCGC were, in that order, -1.16 ± 0.12 and -2.45 ± 0.22.
With UCGAAGCAAUAUUACGAGGA, the “self-splicing fitness (ln)” value runs as follows: (30 °C) -3.21 ± 0.39; (37 °C) -1.19 ± 0.27.
Turning to GGAAAGCAAUAUUACGUAGU, the “self-splicing fitness (ln)” value was -2.97 ± 0.11 (30 °C) and -1.23 ± 0.088 (37 °C).
Consider GUGCAGCAAUAUUACGGCUU, for which the “self-splicing fitness (ln)” value is, setting by setting: (30 °C) -0.306 ± 0.052; (37 °C) -0.128 ± 0.072.
The like results for GGUUAGCAAUAUUACGGAAA were, in that order, -1.53 ± 0.25 and -1.76 ± 0.22.
For UUGAAGCAAUAUUACGUGCC, the “self-splicing fitness (ln)” value was -2.27 ± 0.15 (30 °C) and -0.402 ± 0.16 (37 °C).
UGCUAGCAAUAUUACGGACA: the “self-splicing fitness (ln)” value was -0.668 ± 0.098 (30 °C) and 0.41 ± 0.12 (37 °C).
With GGUCAGCAAUAUUACGAUAA, the “self-splicing fitness (ln)” value reads like this: (30 °C) 0.11 ± 0.092; (37 °C) 0.447 ± 0.15.
The like results for CUAAAGCAAUAUUACGCGCU were, in that order, -3.15 ± 0.16 and -2.06 ± 0.23.
For the sequence UAAAAGCAAUAUUACGCUAA, the “self-splicing fitness (ln)” value was -1.86 ± 0.14 (30 °C) and -0.863 ± 0.13 (37 °C).
With GGGCAGCAAUAUUACGGUAU, the “self-splicing fitness (ln)” value is, setting by setting: (30 °C) -1.06 ± 0.081; (37 °C) -0.373 ± 0.13.
The like results for AUCGAGCAAUAUUACGUCAA were, in that order, -2.72 ± 0.25 and -1.3 ± 0.29.
AGAAAGCAAUAUUACGGUGA: the “self-splicing fitness (ln)” value by setting is: (30 °C) -0.65 ± 0.12; (37 °C) -0.655 ± 0.14.
GGCUAGCAAUAUUACGAGUA: the “self-splicing fitness (ln)” value reads like this: (30 °C) -1.59 ± 0.13; (37 °C) -0.404 ± 0.13.
In the same order, the values of GAGUAGCAAUAUUACGGAAC are -3.8 ± 0.34 and -1.79 ± 0.22.
CUUCAGCAAUAUUACGAGCG: the “self-splicing fitness (ln)” value is -0.695 ± 0.058 (30 °C) and -0.136 ± 0.085 (37 °C).
The like results for CCAGAGCAAUAUUACGGCUG were, in that order, -1.9 ± 0.083 and -1 ± 0.12.
In the case of AUAAAGCAAUAUUACGUGUC, the “self-splicing fitness (ln)” value reads like this: (30 °C) -3.44 ± 0.14; (37 °C) -3.4 ± 0.12.
For the sequence AGAAAGCAAUAUUACGACUC, the “self-splicing fitness (ln)” value (30 °C) was -1.53 ± 0.21 and the “self-splicing fitness (ln)” value (37 °C) was -0.214 ± 0.2.
Take GUAGAGCAAUAUUACGCGCG: the “self-splicing fitness (ln)” value runs as follows: (30 °C) -0.605 ± 0.07; (37 °C) -0.12 ± 0.094.
In the case of UAUUAGCAAUAUUACGCAAU, the “self-splicing fitness (ln)” value was -2.79 ± 0.28 (30 °C) and -1.77 ± 0.27 (37 °C).
In the case of UCUGAGCAAUAUUACGCAAC, the “self-splicing fitness (ln)” value (37 °C) is -2.24 ± 0.29.
Turning to GCCGAGCAAUAUUACGUUGC, the “self-splicing fitness (ln)” value runs as follows: (30 °C) -3.96 ± 0.25; (37 °C) -2.73 ± 0.22.
Regarding AGCGAGCAAUAUUACGUUCC, the “self-splicing fitness (ln)” value (37 °C) was -1.3 ± 0.24.
On to AUCUAGCAAUAUUACGGCGA, for which the “self-splicing fitness (ln)” value by setting is: (30 °C) -0.505 ± 0.14; (37 °C) -0.448 ± 0.16.
Regarding CAAAAGCAAUAUUACGACAA, the “self-splicing fitness (ln)” value was -1.85 ± 0.13 (30 °C) and -1.64 ± 0.15 (37 °C).
In the same order, the values of CACUAGCAAUAUUACGGUUA are -1.99 ± 0.12 and -0.466 ± 0.1.
On to ACUCAGCAAUAUUACGAGUU, for which the “self-splicing fitness (ln)” value (30 °C) is -4.72 ± 0.21 and the “self-splicing fitness (ln)” value (37 °C) is -2.36 ± 0.17.
Consider CCCUAGCAAUAUUACGGCCU, for which the “self-splicing fitness (ln)” value (30 °C) was -2.9 ± 0.21.
For the sequence GCCUAGCAAUAUUACGAUUA, the “self-splicing fitness (ln)” value reads like this: (30 °C) -3.39 ± 0.29; (37 °C) -1.63 ± 0.18.
In the same order, the values of CCACAGCAAUAUUACGAACU are -2.98 ± 0.17 and -3.23 ± 0.32.
In the same order, the values of UCAGAGCAAUAUUACGAGUG are -2.93 ± 0.29 and -0.458 ± 0.17.
Regarding UGGUAGCAAUAUUACGUGUC, the “self-splicing fitness (ln)” value (30 °C) was -2.13 ± 0.46.
As to GUUAAGCAAUAUUACGUCCA, the “self-splicing fitness (ln)” value runs as follows: (30 °C) -1.21 ± 0.088; (37 °C) 0.057 ± 0.097.
With UGUUAGCAAUAUUACGCGAA, the “self-splicing fitness (ln)” value is -0.983 ± 0.12 (30 °C) and -0.191 ± 0.1 (37 °C).
Take GGUCAGCAAUAUUACGACUG: the “self-splicing fitness (ln)” value is, setting by setting: (30 °C) -0.394 ± 0.15; (37 °C) -0.586 ± 0.2.
The like results for CAAGAGCAAUAUUACGAUCC were, in that order, -2.49 ± 0.42 and -2.15 ± 0.5.
UUUUAGCAAUAUUACGUCAG: the “self-splicing fitness (ln)” value by setting is: (30 °C) -3.93 ± 0.47; (37 °C) -0.297 ± 0.27.
In the same order, the values of UAGGAGCAAUAUUACGUCGA are -3.16 ± 0.2 and -1.55 ± 0.21.
On to GGUGAGCAAUAUUACGUACC, for which the “self-splicing fitness (ln)” value is -3.31 ± 0.44 (30 °C) and -1.75 ± 0.37 (37 °C).
The like results for CCACAGCAAUAUUACGGCUU were, in that order, -3.62 ± 0.14 and -2.71 ± 0.18.
Regarding UUACAGCAAUAUUACGAUAG, the “self-splicing fitness (ln)” value by setting is: (30 °C) -0.427 ± 0.056; (37 °C) 0.204 ± 0.07.
Consider UGCAAGCAAUAUUACGGUGC, for which the “self-splicing fitness (ln)” value was -3.59 ± 0.16 (30 °C) and -2.49 ± 0.19 (37 °C).
The like results for GCGGAGCAAUAUUACGGACA were, in that order, -1.62 ± 0.21 and -2.26 ± 0.31.
The like results for UCGGAGCAAUAUUACGAGUA were, in that order, -3.11 ± 0.42 and -1.89 ± 0.31.
The like results for AUUUAGCAAUAUUACGUCAA were, in that order, -3.4 ± 0.29 and -2.14 ± 0.34.
In the case of AGGGAGCAAUAUUACGUUUU, the “self-splicing fitness (ln)” value (30 °C) was -2.81 ± 0.21 and the “self-splicing fitness (ln)” value (37 °C) was -2.22 ± 0.27.
In the same order, the values of GGUCAGCAAUAUUACGACCU are -3.06 ± 0.3 and -2.07 ± 0.32.
The like results for UCGGAGCAAUAUUACGCUGG were, in that order, -3.78 ± 0.46 and -1.26 ± 0.17.
In the same order, the values of GGCUAGCAAUAUUACGAUGU are -1.45 ± 0.084 and -0.785 ± 0.083.
Turning to AGAAAGCAAUAUUACGCCGA, the “self-splicing fitness (ln)” value (30 °C) was -1.29 ± 0.15 and the “self-splicing fitness (ln)” value (37 °C) is -0.795 ± 0.15.
In the same order, the values of CUCCAGCAAUAUUACGCGGC are -1.8 ± 0.26 and -2.08 ± 0.39.
As for UGCGAGCAAUAUUACGAAGG, the “self-splicing fitness (ln)” value by setting is: (30 °C) -1.75 ± 0.2; (37 °C) -1.91 ± 0.44.
Consider CUGGAGCAAUAUUACGUUGA, for which the “self-splicing fitness (ln)” value (30 °C) was -1.67 ± 0.34 and the “self-splicing fitness (ln)” value (37 °C) is -2.26 ± 0.49.
Regarding CUUGAGCAAUAUUACGAAAU, the “self-splicing fitness (ln)” value was -2.7 ± 0.2 (30 °C) and -3.68 ± 0.46 (37 °C).
GCCUAGCAAUAUUACGAUCA: the “self-splicing fitness (ln)” value was -2.27 ± 0.27 (30 °C) and -2.22 ± 0.18 (37 °C).
UCAGAGCAAUAUUACGCGAU: the “self-splicing fitness (ln)” value is, setting by setting: (30 °C) -3.02 ± 0.26; (37 °C) -2.08 ± 0.4.
The like results for UGUAAGCAAUAUUACGAAGG were, in that order, -2.14 ± 0.15 and -1.92 ± 0.25.
CAACAGCAAUAUUACGAGCU: the “self-splicing fitness (ln)” value (30 °C) was -3.61 ± 0.18 and the “self-splicing fitness (ln)” value (37 °C) was -2.44 ± 0.17.
The like results for UACUAGCAAUAUUACGUCUU were, in that order, -2.11 ± 0.13 and -1.27 ± 0.14.

The values are drawn from the supplement of paper PMC7877785.
